Data reported in patent publication US20250262210A1 (TRUSTEES OF COLUMBIA UNIVERSITY IN THE CITY OF NEW YORK, published 2025).

Biological target: T1, FKBP15 (human, UniProt Q5T1M5 1-1219, limits assumed)
T1 sequence (looked up): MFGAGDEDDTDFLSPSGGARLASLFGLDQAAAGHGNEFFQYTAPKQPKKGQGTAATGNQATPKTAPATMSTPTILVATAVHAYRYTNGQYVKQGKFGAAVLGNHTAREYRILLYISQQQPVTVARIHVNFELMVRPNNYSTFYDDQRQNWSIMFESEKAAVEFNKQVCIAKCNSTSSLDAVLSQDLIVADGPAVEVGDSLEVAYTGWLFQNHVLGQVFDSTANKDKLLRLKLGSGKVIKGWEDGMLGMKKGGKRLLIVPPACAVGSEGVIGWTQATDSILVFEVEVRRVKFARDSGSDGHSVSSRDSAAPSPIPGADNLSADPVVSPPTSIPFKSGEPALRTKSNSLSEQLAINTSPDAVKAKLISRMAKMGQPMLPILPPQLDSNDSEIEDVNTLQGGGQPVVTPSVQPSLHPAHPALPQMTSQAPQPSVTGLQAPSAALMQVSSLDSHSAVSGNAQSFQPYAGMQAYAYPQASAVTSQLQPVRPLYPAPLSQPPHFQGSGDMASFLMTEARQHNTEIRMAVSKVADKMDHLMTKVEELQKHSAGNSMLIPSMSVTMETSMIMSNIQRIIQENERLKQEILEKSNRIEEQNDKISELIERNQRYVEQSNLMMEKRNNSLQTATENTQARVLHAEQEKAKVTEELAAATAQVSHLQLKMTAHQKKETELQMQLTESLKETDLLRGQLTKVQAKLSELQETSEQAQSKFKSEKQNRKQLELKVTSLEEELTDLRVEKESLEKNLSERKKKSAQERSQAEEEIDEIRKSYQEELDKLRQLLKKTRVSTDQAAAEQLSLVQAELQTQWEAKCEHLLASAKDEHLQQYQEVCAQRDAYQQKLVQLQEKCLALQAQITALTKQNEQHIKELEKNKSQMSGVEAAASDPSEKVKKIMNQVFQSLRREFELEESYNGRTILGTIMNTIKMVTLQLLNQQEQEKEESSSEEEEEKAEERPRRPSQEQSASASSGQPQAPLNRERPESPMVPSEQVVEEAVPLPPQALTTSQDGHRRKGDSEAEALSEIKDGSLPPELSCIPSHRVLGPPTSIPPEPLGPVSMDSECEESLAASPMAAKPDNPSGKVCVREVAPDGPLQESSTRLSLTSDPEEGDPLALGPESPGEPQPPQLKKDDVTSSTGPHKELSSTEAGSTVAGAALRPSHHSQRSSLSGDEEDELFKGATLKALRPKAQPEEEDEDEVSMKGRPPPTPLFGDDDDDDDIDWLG
Experiment: IP/MS, LZTR1 R810W-FLAG, U87
Summary of the method: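 Read-out: spectral counts from LC-MS/MS (Orbitrap Fusion) after MaxQuant identification. Variable modifications were Met oxidation, protein N-terminal acetylation and N/Q deamidation.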

B1: LZTR1 R810W-FLAG (other, human, UniProt Q8N653 1-840, looked up)
chain: MAGPGSTGGQIGAAALAGGARSKVAPSVDFDHSCSDSVEYLTLNFGPFETVHRWRRLPPCDEFVGARRSKHTVVAYKDAIYVFGGDNGKTMLNDLLRFDVKDCSWCRAFTTGTPPAPRYHHSAVVYGSSMFVFGGYTGDIYSNSNLKNKNDLFEYKFATGQWTEWKIEGRLPVARSAHGATVYSDKLWIFAGYDGNARLNDMWTIGLQDRELTCWEEVAQSGEIPPSCCNFPVAVCRDKMFVFSGQSGAKITNNLFQFEFKDKTWTRIPTEHLLRGSPPPPQRRYGHTMVAFDRHLYVFGGAADNTLPNELHCYDVDFQTWEVVQPSSDSEVGGAEVPERACASEEVPTLTYEERVGFKKSRDVFGLDFGTTSAKQPTQPASELPSGRLFHAAAVISDAMYIFGGTVDNNIRSGEMYRFQFSCYPKCTLHEDYGRLWESRQFCDVEFVLGEKEECVQGHVAIVTARSRWLRRKITQARERLAQKLEQEAAPVPREAPGVAAGGARPPLLHVAIREAEARPFEVLMQFLYTDKIKYPRKGHVEDVLLIMDVYKLALSFQLCRLEQLCRQYIEASVDLQNVLVVCESAARLQLSQLKEHCLNFVVKESHFNQVIMMKEFERLSSPLIVEIVRRKQQPPPRTPLDQPVDIGTSLIQDMKAYLEGAGAEFCDITLLLDGHPRPAHKAILAARSSYFEAMFRSFMPEDGQVNISIGEMVPSRQAFESMLRYIYYGEVNMPPEDSLYLFAAPYYYGFYNNRLQAYCKQNLEMNVTVQNVLQILEAADKTQALDMKRHCLHIIVHQFTKVSKLPTLWSLSQQLLLDIIDSLASHISDKQCAELGADI
notes: Stably expressed in U87 cells by lentivirus; also called LZTR1-FLAG-R810W; LZTR1 RW; not shown: FLAG tag
- binding result: binds
